The results in this text go back to publication doi:10.1101/2024.10.16.618570 (bioRxiv, 2024).

The stoichiometry N is the number of molecules, sites or subunits per partner or assembly.

The series concerns the molecule itself. Put plainly: native gel or EMSA.

B1: BAK (BCL-2 homologous antagonist/killer), endogenous in mouse liver mitochondria (natural protein, UniProt O08734 1-209, looked up)
chain: MASGQGPGPPKVGCDESPSPSEQQVAQDTEEVFRSYVFYLHQQEQETQGAAAPANPEMDNLPLEPNSILGQVGRQLALIGDDINRRYDTEFQNLLEQLQPTAGNAYELFTKIASSLFKSGISWGRVVALLGFGYRLALYVYQRGLTGFLGQVTCFLADIILHHYIARWIAQRGGWVAALNFRRDPILTVMVIFGVVLLGQFVVHRFFRS
As for B1, the “stoichiometry N” value came out at 2.
